# Laboratory results taken from patent US20260297188 (published 2026).
# T1: human NKp46 ECD (human)
# T1 chain: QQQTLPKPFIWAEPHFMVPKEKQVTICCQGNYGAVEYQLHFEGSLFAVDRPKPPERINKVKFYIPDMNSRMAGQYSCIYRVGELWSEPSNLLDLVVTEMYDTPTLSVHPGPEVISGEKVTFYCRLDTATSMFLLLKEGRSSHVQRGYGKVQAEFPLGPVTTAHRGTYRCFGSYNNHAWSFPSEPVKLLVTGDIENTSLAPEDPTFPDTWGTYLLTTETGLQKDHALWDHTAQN
# B1: ch3-7 (antibody, V domains shown)
# VH: QSLEESGGRLVTPGTPLTLTCTVSGFSPSSYYMSWVRQAPGKGLEYIGIIFSGGSTWYASWAKGRVTISRTSTTVDLKMTSLTTEDTATYFCARGDAVGSGYWGLWGPGTLVTVSS
# VL: AFELTQTPSSVEAAVGGTVTINCQASQDIYIYLAWYQQKPGQPPKLLIYSASTLASGVSSRFTGSRSGTQFTLTISDLEPADAATYYCQSYDGTSNTGFGGGTEVVVR
# B2: ch6-1 (antibody, V domains shown)
# VH: QSLEESGGGLVQPEGSLTLTCTASGFSFSSSAWICWVRQAPGKGLEWIGCINTVSVNAYYASWAKGRFTISKTSSTTVTLQVTSLTAADTATHFCARNPYNSLRLWGPGTLVTVSS
# VL: DVVMTQTPASVSEPVGGTITINCQASENIYSSLAWYQQKPGQPPKLLMYDVSDLASGVPSRFSGSGSGTEFALTISDVQPDDAATYFCLGGYPSNNYRMAFGGGTEVVVK
# B3: IP-46-3 (antibody, V domains shown)
# VH: EVQLQQSGPELVKPGASVKISCKTSGYTFTEYTMHWVKQSHGKSLEWIGGISPNIGGTSYNQKFKGKATLTVDKSSSTAYMELRSLTSEDSAVYYCARRGGSFDYWGQGTTLTVSS
# VL: DIVMTQSPATLSVTPGDRVSLSCRASQSISDYLHWYQQKSHESPRLLIKYASQSISGIPSRFSGSGSGSDFTLSINSVEPEDVGVYYCQNGHSFPLTFGAGTKLELK
# B4: ch5-13 (antibody, V domains shown)
# VH: QSVEESGGRLVTPGTPLTLTCTVSGFSLSSYHMSWVRQAPGKGLEWIGYILANTDSYYANWAKGRFTISKTSTTVDLKITSPTTEDTATYFCARYDNHDAAYSTLWGPGTLVTVSS
# VL: AYDMTQTPASVEVAVGGTVTIKCQASQSISTALAWYQQKPGQPPKLLIYKASTLASGVSSRFKGSGSGTQFTLTISGVEPADAATYYCQQGYSRSNVDNVFGGGTEVVVK
# Biological target: T1, human NKp46 ECD
# Test: SPR, 25C
row,Binder,Kd [nM]
1,B1,0.0199
2,B2,0.0209
3,B3,0.361
4,B4,0.194
